We go through 1 variant from IntAct's records for PubMed 23624404.

The labels stand for the following.
B1: DNA repair protein RAD51 (Saccharomyces cerevisiae), P25454 (parent)
chain: MSQVQEQHISESQLQYGNGSLMSTVPADLSQSVVDGNGNGSSEDIEATNGSGDGGGLQEQAEAQGEMEDEAYDEAALGSFVPIEKLQVNGITMADVKKLRESGLHTAEAVAYAPRKDLLEIKGISEAKADKLLNEAARLVPMGFVTAADFHMRRSELICLTTGSKNLDTLLGGGVETGSITELFGEFRTGKSQLCHTLAVTCQIPLDIGGGEGKCLYIDTEGTFRPVRLVSIAQRFGLDPDDALNNVAYARAYNADHQLRLLDAAAQMMSESRFSLIVVDSVMALYRTDFSGRGELSARQMHLAKFMRALQRLADQFGVAVVVTNQVVAQVDGGMAFNPDPKKPIGGNIMAHSSTTRLGFKKGKGCQRLCKVVDSPCLPEAECVFAIYEDGVGDPREEDE

The first assay covers variants of B1. Conditions: with smt3_yeast SMT3, Q12306.
Chain of smt3_yeast SMT3, Q12306 (Q12306 whole entry): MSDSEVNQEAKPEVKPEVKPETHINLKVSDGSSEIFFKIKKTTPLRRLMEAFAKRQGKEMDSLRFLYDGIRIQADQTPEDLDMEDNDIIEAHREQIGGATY
Regarding V321A;V322A, the “effect of a mutation on the interaction” value is “disrupting interaction strength”.

In a further assay the parent is B1. The following applies: with rad52_yeast RAD52, P06778.
On to V321A;V322A, for which the “effect of a mutation on the interaction” value is recorded as “decreasing interaction strength”.
